In patent US7754689B2, “Finger-1 peptide analogs of the TGF-β superfamily” (Wyeth LLC, priority 2006, dated 2010):
Several values for one entry are separate records, joined by “and”; a condition that tells them apart may be missing. Equal entries are not always repeated.

Experiments:
[1] = BMP solubility screen: A320 turbidity of BMP-12 solutions; format: physicochemical; settings: 50 mM Tris pH 8, 0.5 mg/mL BMP-12
Experimental: BMP Solubility Screen—A Tecan liquid-handling robot was used to mix a master plate of reagents, 800 μL×1.25 concentration (for each solution; see Tables 2 and 3), each in 50 mM Tris buffer at pH 8. An eight-channel pipettor was used to transfer 80 μL of material from the master plate into a half-area UV microplate, from which A320 was read from each sample to define a blank. A repeat-pipettor was used to add 20 μL of 2.5 mg/mL BMP-12 in 0.1% TFA to make a 0.5 mg/mL solution, which was then agitated at 14000 rpm. The UV absorption (A320) was read and the blank absorption subtracted to determine solubility. The procedure was repeated with a wider range of 2-methyl-2,4-pentanediol (MPD) concentrations and a finer set of salt concentrations (Table 4).

BMP-12 = target: T1, BMP-12 (Homo sapiens, UniProt Q7Z4P5); assay: Affinity column chromatography, capture and elution of BMP-12; format: binding
T1 sequence (Q7Z4P5 322-450): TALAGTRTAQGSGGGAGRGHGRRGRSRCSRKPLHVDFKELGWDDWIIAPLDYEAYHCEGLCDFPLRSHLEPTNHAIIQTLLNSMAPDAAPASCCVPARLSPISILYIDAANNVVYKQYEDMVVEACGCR
Experimental: BMP-12 was immobilized on NHS-activated Sepharose™ beads at a ratio of about 20 mg:4 mL and the resulting media combined with water or neutral saline buffer to prepare a column. CHO-conditioned media augmented with 1.2 M NaCl was loaded onto the column. In some cases, the media was preconcentrated with respect to BMP before loading. The column was washed with 15 CV (column volumes) of 1.2 M NaCl in 40 mM Na2HPO4 at pH 7.2, followed by 0.5 M arginine/0.5 M NaCl in 20 mM Tris at pH 7.5 (15 CV) and a low salt wash (50 mM ammonium acetate at pH 7, 15 CV). […] Finally, the column was eluted with 5CV of the acetic acid solution with 6M guanidine hydrochloride (GuHCl).
BMP-12 was loaded and eluted from a BMP-12 affinity column as in Example 1.
BMP-12 was purified using a column prepared with the BMP-12 wild type peptide described in Example 7.

B1: BMP-12: Bone Morphogenic Protein, member of the TGF-β superfamily; tested in solution and immobilized on Sepharose beads as affinity ligand (protein)
chain: TALAGTRTAQGSGGGAGRGHGRRGRSRCSRKPLHVDFKELGWDDWIIAPLDYEAYHCEGLCDFPLRSHLEPTNHAIIQTLLNSMAPDAAPASCCVPARLSPISILYIDAANNVVYKQYEDMVVEACGCR
- A320 minus blank (turbidity) ([1]; NaCl 0.5 M, 2-methyl-2,4-pentanediol 2.5%): 2.045
- A320 minus blank (turbidity) ([1]; NaCl 0.5 M, 2-methyl-2,4-pentanediol 5%): 2.414
- A320 minus blank (turbidity) ([1]; NaCl 0.5 M, 2-methyl-2,4-pentanediol 10%): 2.258
- A320 minus blank (turbidity) ([1]; NaCl 0.5 M, 2-methyl-2,4-pentanediol 15%): 1.420
- A320 minus blank (turbidity) ([1]; NaCl 0.5 M, 2-methyl-2,4-pentanediol 20%): 0.165
- A320 minus blank (turbidity) ([1]; NaCl 0.5 M, 2-methyl-2,4-pentanediol 25%): 0.020 and 0.038
- A320 minus blank (turbidity) ([1]; NaCl 0.50 M, 2-methyl-2,4-pentanediol 30%): −0.091
- A320 minus blank (turbidity) ([1]; NaCl 0.50 M, 2-methyl-2,4-pentanediol 35%): 0.026
- A320 minus blank (turbidity) ([1]; NaCl 0.50 M, 2-methyl-2,4-pentanediol 40%): 0.024
- A320 minus blank (turbidity) ([1]; NaCl 0.50 M, 2-methyl-2,4-pentanediol 45%): −0.008
- A320 minus blank (turbidity) ([1]; NaCl 0.75 M, 1-propanol 0%): 1.911
- A320 minus blank (turbidity) ([1]; NaCl 0.75 M, 1-propanol 2.5%): 2.023
- A320 minus blank (turbidity) ([1]; NaCl 0.75 M, 1-propanol 5%): 1.541
- A320 minus blank (turbidity) ([1]; NaCl 0.75 M, 1-propanol 10%): 1.032
- A320 minus blank (turbidity) ([1]; NaCl 0.75 M, 1-propanol 15%): 0.094
- A320 minus blank (turbidity) ([1]; NaCl 0.75 M, 1-propanol 25%): −0.003
- A320 minus blank (turbidity) ([1]; NaCl 0.75 M, 2-methyl-2,4-pentanediol 2.5%): 1.985
- A320 minus blank (turbidity) ([1]; NaCl 0.75 M, 2-methyl-2,4-pentanediol 5%): 2.076
- A320 minus blank (turbidity) ([1]; NaCl 0.75 M, 2-methyl-2,4-pentanediol 10%): 2.211
- A320 minus blank (turbidity) ([1]; NaCl 0.75 M, 2-methyl-2,4-pentanediol 15%): 0.818
- A320 minus blank (turbidity) ([1]; NaCl 0.75 M, 2-methyl-2,4-pentanediol 20%): 0.099
- A320 minus blank (turbidity) ([1]; NaCl 0.75 M, 2-methyl-2,4-pentanediol 25%): 0.001
- A320 minus blank (turbidity) ([1]; NaCl 1 M, 1-propanol 0%): 1.988
- A320 minus blank (turbidity) ([1]; NaCl 1 M, 1-propanol 2.5%): 1.601
- A320 minus blank (turbidity) ([1]; NaCl 1 M, 1-propanol 5%): 1.817
- A320 minus blank (turbidity) ([1]; NaCl 1 M, 1-propanol 10%): 1.000
- A320 minus blank (turbidity) ([1]; NaCl 1 M, 1-propanol 15%): 0.040
- A320 minus blank (turbidity) ([1]; NaCl 1 M, 1-propanol 25%): −0.010
- A320 minus blank (turbidity) ([1]; NaCl 1 M, 2-methyl-2,4-pentanediol 2.5%): 2.133
- A320 minus blank (turbidity) ([1]; NaCl 1 M, 2-methyl-2,4-pentanediol 5%): 1.903
- A320 minus blank (turbidity) ([1]; NaCl 1 M, 2-methyl-2,4-pentanediol 10%): 2.110
- A320 minus blank (turbidity) ([1]; NaCl 1 M, 2-methyl-2,4-pentanediol 15%): 0.400
- A320 minus blank (turbidity) ([1]; NaCl 1 M, 2-methyl-2,4-pentanediol 20%): 0.089
- A320 minus blank (turbidity) ([1]; NaCl 1 M, 2-methyl-2,4-pentanediol 25%): −0.015
- A320 minus blank (turbidity) ([1]; NaCl 1.25 M, 1-propanol 0%): 1.702
- A320 minus blank (turbidity) ([1]; NaCl 1.25 M, 1-propanol 2.5%): 1.376
- A320 minus blank (turbidity) ([1]; NaCl 1.25 M, 1-propanol 5%): 1.643
- A320 minus blank (turbidity) ([1]; NaCl 1.25 M, 1-propanol 10%): 1.018
- A320 minus blank (turbidity) ([1]; NaCl 1.25 M, 1-propanol 15%): 0.033
- A320 minus blank (turbidity) ([1]; NaCl 1.25 M, 1-propanol 25%): 0.022
- A320 minus blank (turbidity) ([1]; NaCl 1.25 M, 2-methyl-2,4-pentanediol 2.5%): 1.819
- A320 minus blank (turbidity) ([1]; NaCl 1.25 M, 2-methyl-2,4-pentanediol 5%): 1.643
- A320 minus blank (turbidity) ([1]; NaCl 1.25 M, 2-methyl-2,4-pentanediol 10%): 1.688
- A320 minus blank (turbidity) ([1]; NaCl 1.25 M, 2-methyl-2,4-pentanediol 15%): 0.257
- A320 minus blank (turbidity) ([1]; NaCl 1.25 M, 2-methyl-2,4-pentanediol 20%): 0.040
- A320 minus blank (turbidity) ([1]; NaCl 1.25 M, 2-methyl-2,4-pentanediol 25%): −0.011
- A320 minus blank (turbidity) ([1]; NaCl 1.5 M, 1-propanol 0%): 1.981
- A320 minus blank (turbidity) ([1]; NaCl 1.5 M, 1-propanol 2.5%): 1.358
- A320 minus blank (turbidity) ([1]; NaCl 1.5 M, 1-propanol 5%): 1.598
- A320 minus blank (turbidity) ([1]; NaCl 1.5 M, 1-propanol 10%): 0.973
- A320 minus blank (turbidity) ([1]; NaCl 1.5 M, 1-propanol 15%): 0.036
- A320 minus blank (turbidity) ([1]; NaCl 1.5 M, 1-propanol 25%): 0.478
- A320 minus blank (turbidity) ([1]; NaCl 1.5 M, 2-methyl-2,4-pentanediol 2.5%): 1.767
- A320 minus blank (turbidity) ([1]; NaCl 1.5 M, 2-methyl-2,4-pentanediol 5%): 1.521
- A320 minus blank (turbidity) ([1]; NaCl 1.5 M, 2-methyl-2,4-pentanediol 10%): 1.798
- A320 minus blank (turbidity) ([1]; NaCl 1.5 M, 2-methyl-2,4-pentanediol 15%): 0.227
- A320 minus blank (turbidity) ([1]; NaCl 1.5 M, 2-methyl-2,4-pentanediol 20%): 0.045
- A320 minus blank (turbidity) ([1]; NaCl 1.5 M, 2-methyl-2,4-pentanediol 25%): 0.003
- capture of BMP-12 by column with immobilized ligand (BMP-12; high salt / high ionic strength load): effectively captured
- elution of BMP-12 from column with immobilized ligand (BMP-12; washes, then gradient to 50 mM acetic acid pH 3, then 6M GuHCl): eluted with acetic acid and guanidine
